Target: T1, SidJ^[change] (SidJ 59–851) (L. pneumophila, UniProt Q5ZTK6 59-851)
T1 sequence: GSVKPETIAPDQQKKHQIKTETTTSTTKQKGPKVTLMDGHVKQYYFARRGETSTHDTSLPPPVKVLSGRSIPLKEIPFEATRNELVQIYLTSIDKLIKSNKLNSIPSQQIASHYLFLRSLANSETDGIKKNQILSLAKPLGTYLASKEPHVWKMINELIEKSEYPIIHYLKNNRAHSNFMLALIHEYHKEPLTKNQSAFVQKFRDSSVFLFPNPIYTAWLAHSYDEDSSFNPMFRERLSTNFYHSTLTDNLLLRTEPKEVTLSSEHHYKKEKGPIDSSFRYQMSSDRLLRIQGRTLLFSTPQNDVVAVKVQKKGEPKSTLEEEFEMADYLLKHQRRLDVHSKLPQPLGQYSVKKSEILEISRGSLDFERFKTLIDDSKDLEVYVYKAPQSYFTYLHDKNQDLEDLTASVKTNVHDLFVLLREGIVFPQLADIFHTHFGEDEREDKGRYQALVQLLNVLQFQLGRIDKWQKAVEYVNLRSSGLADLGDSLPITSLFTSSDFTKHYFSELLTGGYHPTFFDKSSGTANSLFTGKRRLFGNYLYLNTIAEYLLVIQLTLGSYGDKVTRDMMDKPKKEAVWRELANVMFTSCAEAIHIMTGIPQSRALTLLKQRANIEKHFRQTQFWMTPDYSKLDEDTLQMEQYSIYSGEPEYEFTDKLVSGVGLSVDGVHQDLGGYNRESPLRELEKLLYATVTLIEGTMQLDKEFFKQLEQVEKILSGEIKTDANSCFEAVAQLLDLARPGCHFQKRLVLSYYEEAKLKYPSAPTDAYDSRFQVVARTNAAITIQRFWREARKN
Assay: crystal structure

B1: yeast CaM (yCaM) (natural protein)
chain: not shown
  binding result: binds

Reference: article PMC6767918 (Science (New York, N.Y.), 2019)
